Results reported in article PMC6901335.

Biological target: Recombinant MFG-E8 Protein (unlabelled, bound to NL4.3-GFP VLPs) (not stated (human or mouse recombinant protein bought)) (UniProt P21956)
Test: flow cytometry of viral-like particles; 1 × 10^4 NL4.3-GFP VLPs in 20 μl of 1% BSA/PBS or 1 × HBSS (1 mM Ca2+, 2 mM Mg2+, 1 mM Mn2+, 0.5% fatty acid free BSA) with MFG-E8 (5 μg/ml) and integrin αvβ3 (5 μg/ml) on ice for 30 min; bound proteins detected by αv and MFG-E8 antibodies

UniProt P21956, sequence (P21956 23-463): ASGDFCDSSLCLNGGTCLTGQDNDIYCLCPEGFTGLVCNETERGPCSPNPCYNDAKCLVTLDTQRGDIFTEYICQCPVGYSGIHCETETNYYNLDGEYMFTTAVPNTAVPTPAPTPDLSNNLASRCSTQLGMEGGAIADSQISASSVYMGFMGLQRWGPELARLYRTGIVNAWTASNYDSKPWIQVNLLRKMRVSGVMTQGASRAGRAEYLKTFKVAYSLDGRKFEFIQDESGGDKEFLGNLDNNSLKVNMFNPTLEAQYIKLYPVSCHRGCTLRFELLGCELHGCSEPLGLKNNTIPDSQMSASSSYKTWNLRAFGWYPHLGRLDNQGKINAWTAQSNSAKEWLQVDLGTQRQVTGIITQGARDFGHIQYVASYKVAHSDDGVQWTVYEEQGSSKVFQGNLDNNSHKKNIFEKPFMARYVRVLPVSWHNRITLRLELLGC

“Recombinant Human Integrin alpha V beta 3 Protein (from UniProt P06756 31-1048; P05106 27-718) (receptor)” gave a percent of VLPs αvβ3/MFG-E8 positive of 80%.
